Consider one molecule from paper PMC9331743, “Portable Vertical Graphene@Au-Based Electrochemical Aptasensing Platform for Point-of-Care Testing of Tau Protein in the Blood”.

The data set deals with Tau441 (tau protein) (UniProt P10636-8 1-441). As to the kind of experiment: electrochemical aptasensor (DPV); aptamer on VG@Au electrode, MCH blocked; LOD 0.034 pg/mL, linear 0.1 pg/mL-1 ng/mL (not a Kd); Tau in PBS (10 mM, pH 7.4), 1 h at 37 C on electrode; DPV read in 5 mM Fe(CN)6 3-/4- with 0.1 M KCl. The following applies: protein: commercial.
Tau441 (tau protein), sequence (P10636 other isoform, or with tags, fused parts or gaps): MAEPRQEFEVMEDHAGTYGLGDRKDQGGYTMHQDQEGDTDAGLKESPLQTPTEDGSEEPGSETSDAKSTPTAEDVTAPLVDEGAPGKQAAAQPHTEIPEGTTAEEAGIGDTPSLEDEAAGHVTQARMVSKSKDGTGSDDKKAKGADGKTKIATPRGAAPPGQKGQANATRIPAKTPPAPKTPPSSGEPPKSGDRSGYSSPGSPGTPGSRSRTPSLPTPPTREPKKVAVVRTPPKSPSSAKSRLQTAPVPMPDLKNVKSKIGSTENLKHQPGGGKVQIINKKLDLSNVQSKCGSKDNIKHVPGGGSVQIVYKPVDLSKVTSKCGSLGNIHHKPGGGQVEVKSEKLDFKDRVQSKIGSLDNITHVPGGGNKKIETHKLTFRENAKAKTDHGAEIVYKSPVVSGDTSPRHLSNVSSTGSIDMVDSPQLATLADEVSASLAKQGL

B1: tau DNA aptamer (ssDNA)
DNA: CAGCACCGTCAACTGAATGGGTTGGCCGGGCAGCGGGGGGTAGGCTGGTGATGCGATGGAGATGT
modifications: 5' SH-(CH2)6 thiol linker
As to B1, the binding result was “binds”.
